B1: Protein RD3 (Homo sapiens), Q7Z3Z2 (parent)
chain: MSLISWLRWNEAPSRLSTRSPAEMVLETLMMELTGQMREAERQQRERSNAVRKVCTGVDYSWLASTPRSTYDLSPIERLQLEDVCVKIHPSYCGPAILRFRQLLAEQEPEVQEVSQLFRSVLQEVLERMKQEEEAHKLTRQWSLRPRGSLATFKTRARISPFASDIRTISEDVERDTPPPLRSWSMPEFRAPKAD
B2: Cytochrome P450 2S1 (Homo sapiens), Q96SQ9 (parent)
chain: MEATGTWALLLALALLLLLTLALSGTRARGHLPPGPTPLPLLGNLLQLRPGALYSGLMRLSKKYGPVFTIYLGPWRPVVVLVGQEAVREALGGQAEEFSGRGTVAMLEGTFDGHGVFFSNGERWRQLRKFTMLALRDLGMGKREGEELIQAEARCLVETFQGTEGRPFDPSLLLAQATSNVVCSLLFGLRFSYEDKEFQAVVRAAGGTLLGVSSQGGQTYEMFSWFLRPLPGPHKQLLHHVSTLAAFTVRQVQQHQGNLDASGPARDLVDAFLLKMAQEEQNPGTEFTNKNMLMTVIYLLFAGTMTVSTTVGYTLLLLMKYPHVQKWVREELNRELGAGQAPSLGDRTRLPYTDAVLHEAQRLLALVPMGIPRTLMRTTRFRGYTLPQGTEVFPLLGSILHDPNIFKHPEEFNPDRFLDADGRFRKHEAFLPFSLGKRVCLGEGLAKAELFLFFTTILQAFSLESPCPPDTLSLKPTVSGLFNIPPAFQLQVRPTDLHSTTQTR
partner: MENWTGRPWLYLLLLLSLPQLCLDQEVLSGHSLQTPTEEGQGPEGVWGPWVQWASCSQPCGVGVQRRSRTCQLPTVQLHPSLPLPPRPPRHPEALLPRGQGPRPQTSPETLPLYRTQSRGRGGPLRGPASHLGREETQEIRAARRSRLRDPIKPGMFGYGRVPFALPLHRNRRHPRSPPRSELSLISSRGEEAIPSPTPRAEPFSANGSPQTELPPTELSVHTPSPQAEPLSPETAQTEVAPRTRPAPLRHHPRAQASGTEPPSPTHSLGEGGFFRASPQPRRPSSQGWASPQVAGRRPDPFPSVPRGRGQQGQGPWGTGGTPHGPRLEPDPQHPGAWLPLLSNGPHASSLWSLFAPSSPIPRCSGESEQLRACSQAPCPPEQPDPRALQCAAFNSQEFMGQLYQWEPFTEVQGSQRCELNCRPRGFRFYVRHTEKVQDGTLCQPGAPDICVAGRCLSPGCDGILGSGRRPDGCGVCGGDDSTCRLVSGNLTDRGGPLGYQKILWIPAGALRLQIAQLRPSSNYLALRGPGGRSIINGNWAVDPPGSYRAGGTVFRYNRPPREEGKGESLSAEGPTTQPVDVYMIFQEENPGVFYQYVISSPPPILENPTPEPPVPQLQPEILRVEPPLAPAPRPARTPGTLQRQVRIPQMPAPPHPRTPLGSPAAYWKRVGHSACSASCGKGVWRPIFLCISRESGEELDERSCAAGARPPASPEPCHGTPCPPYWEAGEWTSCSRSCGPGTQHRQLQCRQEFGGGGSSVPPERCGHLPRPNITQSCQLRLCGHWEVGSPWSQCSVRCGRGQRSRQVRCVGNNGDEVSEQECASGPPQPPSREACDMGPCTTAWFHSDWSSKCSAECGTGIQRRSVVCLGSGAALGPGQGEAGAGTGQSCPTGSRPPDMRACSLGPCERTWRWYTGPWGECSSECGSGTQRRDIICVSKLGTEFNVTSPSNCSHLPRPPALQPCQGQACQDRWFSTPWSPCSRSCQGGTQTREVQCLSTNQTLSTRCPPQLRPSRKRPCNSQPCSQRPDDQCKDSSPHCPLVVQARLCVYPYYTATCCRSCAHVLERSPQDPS
B3: DCC-interacting protein 13-beta (Homo sapiens), Q8NEU8 (parent)
chain: MPAVDKLLLEEALQDSPQTRSLLSVFEEDAGTLTDYTNQLLQAMQRVYGAQNEMCLATQQLSKQLLAYEKQNFALGKGDEEVISTLHYFSKVVDELNLLHTELAKQLADTMVLPIIQFREKDLTEVSTLKDLFGLASNEHDLSMAKYSRLPKKKENEKVKTEVGKEVAAARRKQHLSSLQYYCALNALQYRKQMAMMEPMIGFAHGQINFFKKGAEMFSKRMDSFLSSVADMVQSIQVELEAEAEKMRVSQQELLSVDESVYTPDSDVAAPQINRNLIQKAGYLNLRNKTGLVTTTWERLYFFTQGGNLMCQPRGAVAGGLIQDLDNCSVMAVDCEDRRYCFQITTPNGKSGIILQAESRKENEEWICAINNISRQIYLTDNPEAVAIKLNQTALQAVTPITSFGKKQESSCPSQNLKNSEMENENDKIVPKATASLPEAEELIAPGTPIQFDIVLPATEFLDQNRGSRRTNPFGETEDESFPEAEDSLLQQMFIVRFLGSMAVKTDSTTEVIYEAMRQVLAARAIHNIFRMTESHLMVTSQSLRLIDPQTQVSRANFELTSVTQFAAHQENKRLVGFVIRVPESTGEESLSTYIFESNSEGEKICYAINLGKEIIEVQKDPEALAQLMLSIPLTNDGKYVLLNDQPDDDDGNPNEHRGAESEA
partner: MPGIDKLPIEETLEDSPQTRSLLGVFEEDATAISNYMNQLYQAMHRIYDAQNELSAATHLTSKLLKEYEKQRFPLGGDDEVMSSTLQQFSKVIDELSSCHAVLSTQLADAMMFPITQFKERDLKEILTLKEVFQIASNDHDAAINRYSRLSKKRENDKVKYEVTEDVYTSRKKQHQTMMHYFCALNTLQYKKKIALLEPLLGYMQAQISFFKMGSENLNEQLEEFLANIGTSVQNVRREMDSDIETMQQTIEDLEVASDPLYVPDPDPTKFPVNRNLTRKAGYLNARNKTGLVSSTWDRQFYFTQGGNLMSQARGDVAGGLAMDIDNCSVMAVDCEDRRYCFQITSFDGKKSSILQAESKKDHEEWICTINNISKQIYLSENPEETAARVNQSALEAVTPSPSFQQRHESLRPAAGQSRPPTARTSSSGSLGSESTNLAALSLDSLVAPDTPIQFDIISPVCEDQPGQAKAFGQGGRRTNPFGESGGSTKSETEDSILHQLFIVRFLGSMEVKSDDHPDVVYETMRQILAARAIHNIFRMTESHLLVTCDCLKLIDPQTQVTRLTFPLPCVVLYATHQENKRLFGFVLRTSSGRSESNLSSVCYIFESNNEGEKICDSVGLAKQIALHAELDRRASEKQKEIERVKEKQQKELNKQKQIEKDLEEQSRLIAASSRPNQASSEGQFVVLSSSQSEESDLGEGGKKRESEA
B4: Synaptotagmin-like protein 5 (Homo sapiens), Q8TDW5 (parent)
chain: MSKNSEFINLSFLLDHEKEMILGVLKRDEYLKKVEDKRIRKLKNELLEAKRRSGKTQQEASRVCVHCHRNLGLIFDRGDPCQACSLRVCRECRVAGPNGSWKCTVCDKIAQLRIITGEWFFEEKAKRFKQVNVLGTDVVRQSILRRSPGAEEVQSQEQTRQDAEKSDTSPVAGKKASHDGPKRKGFLLSKFRSATRGEIITPKTDTGRSYSLDLDGQHFRSLKSPPGSDRGSTGSSDLNDQEPGPRTPKSSRSNGVTPGTQSSPAPSTRTVTSVISREYGFENSMDLAAIEGTSQELTKSHRRNTSGTPSIAVSGTSLSSDQSRSELDLSESFTEDSEDTVSIRSKSVPGALDKDSLEETEESIDALVSSQLSTNTHRLASGLSTTSLNSMMSVYSETGDYGNVKVSGEILLHISYCYKTGGLYIFVKNCRNLAIGDEKKQRTDAYVKSYLLPDKSRNNKRKTKIRTGTNPEFNETLKYTISHTQLETRTLQLSVWHYDRFGRNSFLGEVEIPFDSWNFENPTDEWFVLQPKVEFAPDIGLQYKGELTVVLRYIPPEENLMLPPEQLQGNKTFKKGKKKESPVISGGILEVFIKEAKNLTAVKSGGTSDSFVKGYLLPDDSKATKHKTLVIKKSVNPQWNHTFMFSGIHPQDIKNVCLELTIWDKEAFSSNIFLGGVRLNSGSGVSHGKNVDWMDSQGEEQRLWQKMANNPGTPFEGVLMLRSSMGKCRL

Variants of: B1
Conditions: with ei2ba_human EIF2B1, Q14232
Sequence of ei2ba_human EIF2B1, Q14232 (Q14232 whole entry): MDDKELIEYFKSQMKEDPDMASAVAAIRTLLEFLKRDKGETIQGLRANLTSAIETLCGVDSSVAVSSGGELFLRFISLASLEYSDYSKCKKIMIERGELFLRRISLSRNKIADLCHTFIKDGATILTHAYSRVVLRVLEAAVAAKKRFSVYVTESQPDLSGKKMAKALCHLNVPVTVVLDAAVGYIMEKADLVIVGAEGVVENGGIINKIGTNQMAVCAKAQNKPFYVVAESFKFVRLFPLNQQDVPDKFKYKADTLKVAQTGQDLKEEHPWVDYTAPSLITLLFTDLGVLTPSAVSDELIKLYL

effect of a mutation on the interaction | Variant
with no effect | R167K

Variants of: B2
Conditions: with atl4_human ADAMTSL4, Q6UY14

effect of a mutation on the interaction | Variant
disrupting interaction strength | MEATGTWALLLALALLLLLTLALSGTRARGHLPPGPTPLPLLGNLLQLRPGALYSGLMRLSKKYGPVFTIYLGPWRPVVVLVGQEAVREALGGQAEEFSGRGTVAMLEGTFDGHGVFFSNGERWRQLRKFTMLALRDLGMGKREGEELIQAEARCLVETFQGTEGHPFDPSLLLAQATSNVVCSLLFGLRFSYEDKEFQAVVRAAGGTLLGVSSQGGQTYEMFSWFLRPLPGPHKQLLHHVSTLAAFTVRQVQQHQGNLDASGPARDLVDAFLLKMAQEEQNPGTEFTNKNMLMTVIYLLFAGTMTVSTTVGYTLLLLMKYPHVQKWVREELNRELGAGQAPSLGDRTRLPYTDAVLHEAQRLLALVPMGIPRTLMRTTRFRGYTLPQGTEVFPLLGSILHDPNIFKHPEEFNPDRFLDADGRFRKHEAFLPFSLGKRVCLGEGLAKAELFLFFTTILQAFSLESPCPPDTLSLKPTVSGLFNIPPAFQLQVRPTDLHSTTQTR [R166H]

Variants of: B3
Conditions: with dp13a_human APPL1, Q9UKG1

effect of a mutation on the interaction | Variant
with no effect | K70R

Variants of: B4
Conditions: with cep70_human CEP70, Q8NHQ1
Sequence of cep70_human CEP70, Q8NHQ1 (Q8NHQ1 whole entry): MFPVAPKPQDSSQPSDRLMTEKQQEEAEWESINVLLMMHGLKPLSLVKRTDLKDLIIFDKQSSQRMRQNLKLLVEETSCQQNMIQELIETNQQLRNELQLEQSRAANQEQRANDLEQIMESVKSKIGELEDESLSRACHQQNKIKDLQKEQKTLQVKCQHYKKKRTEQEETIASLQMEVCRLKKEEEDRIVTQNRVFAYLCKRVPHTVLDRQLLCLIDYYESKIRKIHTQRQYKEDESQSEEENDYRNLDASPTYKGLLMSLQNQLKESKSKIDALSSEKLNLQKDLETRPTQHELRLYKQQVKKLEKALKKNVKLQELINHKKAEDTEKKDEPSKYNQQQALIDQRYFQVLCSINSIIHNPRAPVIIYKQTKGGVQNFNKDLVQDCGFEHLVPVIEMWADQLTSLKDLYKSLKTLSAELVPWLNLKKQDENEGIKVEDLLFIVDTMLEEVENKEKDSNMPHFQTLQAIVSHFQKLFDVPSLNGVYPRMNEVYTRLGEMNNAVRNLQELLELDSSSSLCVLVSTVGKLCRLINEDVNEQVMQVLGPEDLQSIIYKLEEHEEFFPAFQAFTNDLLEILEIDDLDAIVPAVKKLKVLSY

effect of a mutation on the interaction | Variant
with no effect | D400N
